Laboratory results taken from the RNAGym collection of RNA variant scans (doi:10.1073/pnas.2313332121).
Fewer inactive variants are shown than the library holds.

B1: TPR 5TU (parent)
chain: GGAUCUUCUCGAUCUAACAAAAAAGACAAAUCUGCCACAAAGCUUGAGAGCAUCUUCGGAUGCAGAGGCGGCAGCCUUCGGUGGCGCGAUAGCGCCAACGUUCUCAACUAUGACACGCAAAACGCGUGCUCCGUUGAAUGGAGUUUAUCAUG

Variants of: B1
Experiment: polymerase ribozyme fitness, log enrichment relative to wild type (log ratio); higher = more active; in vitro selection for triplet polymerase activity
Method in brief: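 Fitness is a logarithmic measure of how a genotype enriched relative to the wild type, with replicate averages weighted by inverse variance. The logarithm uses base 2, and enrichment came from Illumina sequencing of input and output libraries. Those libraries were PCR-built, transcribed mutants of each subunit of a heterodimeric triplet polymerase ribozyme, passed through one triplicate in vitro selection round that included frozen incubation at −7 °C, gel excision of extended constructs and streptavidin-bead capture. Genotypes were kept only if they had ≥10 input reads and ≥1 read per output.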

Compared with U55G G94A A98U, U55G G88U is lower in “polymerase ribozyme fitness (log ratio)” value: -0.256 for the first, -4.02 for the second.

Going from U56A G58A C93A to U56G C85G A119G G141C, the “polymerase ribozyme fitness (log ratio)” value falls from -1.41 to -2.08.

First: U55A A119G U148G
Second: U55A C85G
The “polymerase ribozyme fitness (log ratio)” value of the first is lower: -3.77 for the first, -2.99 for the second.

First: U55A C85A
Second: U55G C57A G59C C85A A115G A119U
The “polymerase ribozyme fitness (log ratio)” value of the first is lower: -2.26 for the first, -2.01 for the second.

First: U56A G88C C99U A119G
Second: U56A G136U
The “polymerase ribozyme fitness (log ratio)” value of the first is lower: no more than -4.2 for the first, -2.72 for the second.

First: U55G C96U C105U G143A
Second: U55A A64G
The “polymerase ribozyme fitness (log ratio)” value of the first is higher: -0.651 for the first, -3.3 for the second.

First: C57A A113G
Second: U56A A73U G140A
The “polymerase ribozyme fitness (log ratio)” value of the first is higher: -1.32 for the first, -4.06 for the second.

First: U55A G92U C96A G117A A121U
Second: U55G G88U G94A G124A C125G G126A A142U
The “polymerase ribozyme fitness (log ratio)” value of the first is higher: -1.48 for the first, no more than -4.2 for the second.

Compared with U56C G80U, U56A A121C C149G is lower in “polymerase ribozyme fitness (log ratio)” value: -0.2 for the first, -3.14 for the second.

Compared with C57U A73C, C57U A73U is higher in “polymerase ribozyme fitness (log ratio)” value: -1.36 for the first, -0.507 for the second.

C57U A64U G92C C105U and U56A C76G C85U A91G U111G C118U G140A G143A cannot be ordered by “polymerase ribozyme fitness (log ratio)” value: no more than -4.2 for the first, no more than -4.2 for the second.

U56A G58U A98U G100C and U56A G80C C93A C95A U102G C114A A150U cannot be ordered by “polymerase ribozyme fitness (log ratio)” value: no more than -4.2 for the first, no more than -4.2 for the second.

First: U55C U144C
Second: U56A C85G G86U
The “polymerase ribozyme fitness (log ratio)” value of the first is higher: 0.187 for the first, no more than -4.2 for the second.

Compared with C57A C131G, U55C A91U U144A is lower in “polymerase ribozyme fitness (log ratio)” value: -3.13 for the first, no more than -4.2 for the second.

First: U55A A73G U77G A91C C116A G141A
Second: U56G C118U C123U
The “polymerase ribozyme fitness (log ratio)” value of the first is lower: no more than -4.2 for the first, -0.604 for the second.

C57A U78G G86C A89U C96U A120U C129G and U55A G88A cannot be ordered by “polymerase ribozyme fitness (log ratio)” value: no more than -4.2 for the first, no more than -4.2 for the second.

Going from U55A A73G U135A U146C to U55G U90G C123G U134A, the “polymerase ribozyme fitness (log ratio)” value falls from -0.581 to no more than -4.2.

Compared with C57A A91G C132G, C57U A121U C129U is higher in “polymerase ribozyme fitness (log ratio)” value: -4.05 for the first, -0.101 for the second.

U56A G88C A122G C123G and U56G C69U A91U C105G U130A cannot be ordered by “polymerase ribozyme fitness (log ratio)” value: no more than -4.2 for the first, no more than -4.2 for the second.

First: U56A C93A A98G
Second: U55A C96A A107C C116A G124C U151A
The “polymerase ribozyme fitness (log ratio)” value of the first is higher: -2.63 for the first, no more than -4.2 for the second.

Going from C57A C85U U146C to U55A G67U C69G C76A A98G, the “polymerase ribozyme fitness (log ratio)” value falls from -0.426 to -2.81.

Compared with C57U A142U, C57G A91U A147U is lower in “polymerase ribozyme fitness (log ratio)” value: 0.471 for the first, no more than -4.2 for the second.

C57G U148A and C57A G58C G84A A91G are within 0.2 log units of each other in “polymerase ribozyme fitness (log ratio)” value: -3.25 for the first, -3.28 for the second.

First: U56A C99A
Second: C57A C85U G143A
The “polymerase ribozyme fitness (log ratio)” value of the first is lower: -1.6 for the first, -0.323 for the second.

Going from U55C G124C to U55C A91G, the “polymerase ribozyme fitness (log ratio)” value falls from -1.14 to -3.06.

First: U56A G58A A73U C96G
Second: U56A G70C G117C
The “polymerase ribozyme fitness (log ratio)” value of the first is higher: -1.81 for the first, -3.79 for the second.

Going from U56G A60G to U55G C76A G92A C108U, the “polymerase ribozyme fitness (log ratio)” value falls from -0.515 to no more than -4.2.

Compared with U55G G84A, C57U C63A is higher in “polymerase ribozyme fitness (log ratio)” value: -1.68 for the first, 0.923 for the second.

C57G G59A and C57G G59C are within 0.2 log units of each other in “polymerase ribozyme fitness (log ratio)” value: -0.436 for the first, -0.566 for the second.

First: U56A U146A
Second: U56A C76G
The “polymerase ribozyme fitness (log ratio)” value of the first is higher: -0.732 for the first, no more than -4.2 for the second.

Going from C57A A66G C87A to U55A G128U, the “polymerase ribozyme fitness (log ratio)” value rises from no more than -4.2 to -3.12.

Going from U55A G74A to U55G C131A, the “polymerase ribozyme fitness (log ratio)” value rises from -3.26 to -2.39.

First: U56G U61G G128U
Second: C57U A107C
The “polymerase ribozyme fitness (log ratio)” value of the first is lower: -3.73 for the first, -3.3 for the second.

Going from C57G C95U U102G to U56A C93U U102G G140A, the “polymerase ribozyme fitness (log ratio)” value falls from -2.74 to no more than -4.2.

Going from U56A G81C G83A C87G A107G A122C G141U to U56A G83A C87U, the “polymerase ribozyme fitness (log ratio)” value rises from no more than -4.2 to -3.83.

First: U56A G84A A98U U101C
Second: U56A U82G U139A
The “polymerase ribozyme fitness (log ratio)” value of the first is higher: -1.09 for the first, -4.02 for the second.

Going from C57G G83U A147U to U55G A98G U139G, the “polymerase ribozyme fitness (log ratio)” value falls from 0.219 to -0.271.

Compared with U56A U127G, U55A C69U C85A C87U is lower in “polymerase ribozyme fitness (log ratio)” value: -2.83 for the first, no more than -4.2 for the second.

Going from U55A C76G C93U C103G G143A A150U to C57G A73G U82A C96G U101C C116A, the “polymerase ribozyme fitness (log ratio)” value rises from no more than -4.2 to -3.9.

U55G G84C A107G A142C and U55A C85A U102A cannot be ordered by “polymerase ribozyme fitness (log ratio)” value: no more than -4.2 for the first, no more than -4.2 for the second.

Compared with U55C A91G A106C C129U C131U, U55G G86U C95U is higher in “polymerase ribozyme fitness (log ratio)” value: no more than -4.2 for the first, -0.739 for the second.

Going from U56A G59U C69A C87U U101C G140U to U55G U56A C57G C76A C93A, the “polymerase ribozyme fitness (log ratio)” value falls from -3.01 to -3.7.
